Test: yeast display, Sf9 membrane polyspecificity reagent, FACS + sequencing; frameworks hold sequencing errors
Method in brief: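 Genes from sorted yeast were amplified by colony PCR, read by MiSeq 2 × 250 sequencing and filtered on CDR length. These cells carried a synthetic nanobody library in Saccharomyces cerevisiae BJ5465 and were sorted by FACS into low and high (top ~1%) gates on anti-HA and streptavidin fluorescence. Polyreactivity is labelled according to the gate of origin.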

Sequence: QVQLVESGGGLDQAGGSLRLICAASVRTFFVNAMGRYRQAPGKERELVATITFSGDSTYYADSVKGRFTISRDNAKNTVYLQMNSLKPADTAVYYCAAYQGQKGYDYWGQGTQVTVSS
- polyreactivity (PSR sort gate): high polyreactivity

Sequence: QVQLVESGGGLDQAGGSLRLRCAASGIIFDYNGMGWYRQAPGKERELVAVISFSGSGTYYADSVKGRFTISRDNAKNTVYLHMNSLKPEDTAVYYCAADTGPYFEYEYWGQGTQVTVSS
- polyreactivity (PSR sort gate): low polyreactivity

Sequence: QVQLVESGGGLDQAGGSLRLSCAAAGSIFDYYAMGSYRQAPGKERELVAAISWSGGSTYFADSVKGRFTISRDNAKNTVYLQMNSLKPEDTAVYYCAARGFWGQGTQVTVSS
- polyreactivity (PSR sort gate): low polyreactivity

Sequence: QVQLVESGGGLDQAGGSLRLSCAASASIFWGYDMGWYRQAPGKEREFVARISYSGGSTSYAESVKGRFTISRDNAKNTVYLQMNSLKPEDTAVYYCAADEGVFWWTYPYDSWGQGTQVTVSS
- polyreactivity (PSR sort gate): low polyreactivity

Sequence: QVQLVESGGGLDQAGGSLRLSCAASASTFYANAMGWYRQSPGKEREFVAAIDWSGATTYYADSVKGRFTISRDNAMNTVYLQMNSLKPEDTAVYYCAAEVYFLATGTWYDYWGLGTQVTVSS
- polyreactivity (PSR sort gate): high polyreactivity

Sequence: QVQLVESGGGLDQAGGSLRLSCAASGAIFPIYAMGWYRQAPGKERELVAAINRSGGSTYYADSVKGRFTISRDTAKNTVYLQMNSLKPEDSAVYYCNADYGYHNQLFWGYYGWSSDHWGQGTQVTVSS
- polyreactivity (PSR sort gate): low polyreactivity

Sequence: QVQLVESGGGLDQAGGSLRLSCAASGFIFKYYVMGWYRQAPGKERELVAAISLSDARTNYADSVKGRFTISRDNAKNTVYLQMHSLKPVDTAFYYCAAKSHYYTSGHRHYDYWGQGTQVTVSS
- polyreactivity (PSR sort gate): high polyreactivity

Sequence: QVQLVESGGGLDQAGGSLRLSCAASGFIFNNYAMGSYRQAPGKERELVAAITWSGGGTYYADSVKGRFTISRDNAKNTVYLQMNSLKPEDTAVYYCADYYPAYRDEYWGQGTQVTVSS
- polyreactivity (PSR sort gate): high polyreactivity

Sequence: QVQLVESGGGLDQAGGSLRLSCAASGFIFPAYAMGWYRQAPGKERELVAAITTRGGSTYYADSVKGRFTISRDNAKNTVYLQMNSLKPEDTAVYYCAAYAVWYRYYYWGQGTQVTVSS
- polyreactivity (PSR sort gate): low polyreactivity

Sequence: QVQLVESGGGLDQAGGSLRLSCAASGFIFSYYTMGWYRHAPGKERELVAAIRSSGGSTYADSVKGRFTISRDNAKNTVYLQMNSLKPEDTAVYYCAAESYYPAGIRGYWGQGTQVTVSS
- polyreactivity (PSR sort gate): high polyreactivity

Sequence: QVQLVESGGGLDQAGGSLRLSCAASGFIFVYNVMGWYRQAPGKEREFVATITWRGVTTYYADSVKGRFTISRDNAKNTVYLQMNSLKPEDTAVYYCAVTVAYSYPRRSHYYWGQGTQVTVSS
- polyreactivity (PSR sort gate): low polyreactivity

Sequence: QVQLVESGGGLDQAGGSLRLSCAASGFIFYQNAMGWYKQAPGKERELFAAISTTGSRTYYADSVKGRFTISRDNPKNTVYLQMNRLKPVDTAVYYCATPLQQEGDWGQGTQVTVSS
- polyreactivity (PSR sort gate): high polyreactivity

Sequence: QVQLVESGGGLDQAGGSLRLSCAASGFILDTYGMGWYRQATGTERELVAAISQSDVSTYYADSVKGRFTISRDNAKNTVYLQMNSLKPEDTAVYYCAAAHLSYRRRYESWGQGTQVTVSS
- polyreactivity (PSR sort gate): low polyreactivity

Sequence: QVQLVESGGGLDQAGGSLRLSCAASGGIFDDYAKGRYRQAPRKERELVAAISSSGGSTYYADSVKGRFTISLDNAKNTVYLQMNSLKPEYTAVYLCNADSRGSFGYWGQGTQVTVSS
- polyreactivity (PSR sort gate): high polyreactivity

Sequence: QVQLVESGGGLDQAGGSLRLSCAASGIIFGTNAMGWYIQAPGKESELVAAITWSGGNTTYADSVKGRFTISRDNAKNTVYLQMNSLKPEDTAVYYCAADFTRAGDYDYWGQGTQVTVSS
- polyreactivity (PSR sort gate): low polyreactivity

Sequence: QVQLVESGGGLDQAGGSLRLSCAASGIIFPVYARGGYRQAPGKERELVAAISSVGSTNYADSVKGRFTISRDNAKNTVYLQMNSLKPEDTAVYYCAVDWAQEDGYWGQGPQVTVSS
- polyreactivity (PSR sort gate): low polyreactivity

Sequence: QVQLVESGGGLDQAGGSLRLSCAASGIIFSLYAMGSYRQAPGKERELVAAISASDGDTYYADSVKGRFTISRDNAKNTVYLQMNSLKPEDTAVYYCAADATYYLGYEAEYYYWGQGTQVTVSS
- polyreactivity (PSR sort gate): low polyreactivity

Sequence: QVQLVESGGGLDQAGGSLRLSCAASGIIFWEYAMGWYRQAPGKERELVAAINARGTRTYYADSVKGRFTISRDNAKNTVYLQMNSLKPEDTAVYYCAADRYGWTRYDSWGQGTQVTVSS
- polyreactivity (PSR sort gate): high polyreactivity

Sequence: QVQLVESGGGLDQAGGSLRLSCAASGIIPYYYVMGWYRQAPGKERELVAAINRSGTSTYYADSVKGRFTISRDNAKNTVYLQMNSLKPEDTAVYYCAAERYWSGGVFDYDYWGQGTQVTVSS
- polyreactivity (PSR sort gate): high polyreactivity

Sequence: QVQLVESGGGLDQAGGSLRLSCAASGITFKSNAMGWYRQAPGKESELVAAISRRASSTYYADSVKGRFTISRDNAKHTVYLQMNSLKPEDTAVYYCNAVLPVYRTNMDYWGQGTQVTVSS
- polyreactivity (PSR sort gate): high polyreactivity

Sequence: QVQLVESGGGLDQAGGSLRLSCAASGITFKSYAMGWYRQAPGKERELVAAITYRSGSTYYADSVKGRFTISRDNAKNTVYLQMNSLKPEDTAVYYCAVGGKFQIQTYYQRYNYWGQGTQVTVSS
- polyreactivity (PSR sort gate): high polyreactivity

Sequence: QVQLVESGGGLDQAGGSLRLSCAASGITFQWYTMGWYIQAPGKERDLVATISSGGSTNYADSVKGRFTISRDNAKNTVYLQMKSLKPEDTAVYYCAKQPTVYHHYGLGYWGQGTQVTVSS
- polyreactivity (PSR sort gate): low polyreactivity

Sequence: QVQLVESGGGLDQAGGSLRLSCAASGITFSTYAMGWYRQAPGKEREFVAAISASGGTTYYADSVKGRFTISRDNAKNTVYLQMNSLKPEDTAVYYCAADRFRVYLIYIWAMGYWGQGTQVTVSS
- polyreactivity (PSR sort gate): high polyreactivity

Sequence: QVQLVESGGGLDQAGGSLRLSCAASGITFYRYVKGWYRQAPGKEREYVAAINWSTGTTNYADSVKGRFTISRDNAKNTVYFQMNILKPEDTAVYYCNARYRLRYIYSLRYDYWGQGTHVTVSS
- polyreactivity (PSR sort gate): high polyreactivity

Sequence: QVQLVESGGGLDQAGGSLRLSCAASGLTFPTNARGWYRQAPGKEREFVAAITSRGGTTYYADSVKGRFTISRDNAKNTVYLQMNSLKPEETAVYYCGALSVTIYQYDSYGYWGQGTQVSVSS
- polyreactivity (PSR sort gate): low polyreactivity

Sequence: QVQLVESGGGLDQAGGSLRLSCAASGLTFQWNAMGWYRQAPGKERELVAGITDIGDSTYYADSVKGRFTISRDNAKHTDYLQLNSLKPEDTAVYYCNATSGYKHAWRSENGYWGQGTQVTVSS
- polyreactivity (PSR sort gate): low polyreactivity

Sequence: QVQLVESGGGLDQAGGSLRLSCAASGLTFYYYAMGWYRQAPGKERELVAAITWRGVSTYYADSVKGRFTISRDNAKNTVYLQMNSLKPEDTAVYYCAAGWTSSRYDFWGQGTQVTVSS
- polyreactivity (PSR sort gate): high polyreactivity

Sequence: QVQLVESGGGLDQAGGSLRLSCAASGMTFHPYAMGWYRQAPGKERELVAAISSRGTSTYYADSVKGRFTISRDIAKNTVYLQMNSLKPEDTAVYYCAAEVITIGLYRYGYWGQGTQVTVSS
- polyreactivity (PSR sort gate): high polyreactivity

Sequence: QVQLVESGGGLDQAGGSLRLSCAASGNTSPVNAMGWYRQAPGKERELVAAITQSGGSTYYADSVKGRFTISRDNAKNTVYLQMNSLKPEDTAVYYCAAPDAGWRDGGDYWGQGTQVTVSS
- polyreactivity (PSR sort gate): low polyreactivity

Sequence: QVQLVESGGGLDQAGGSLRLSCAASGRIFIKNTMGWYRQAPGKERELVAAITSSGSSTYYADSVKGRFTISRDNAKNTVYLKMNSLKPEDTAVYYCNALTWDHSRTGVDYWGQGTQVTVSS
- polyreactivity (PSR sort gate): low polyreactivity

Sequence: QVQLVESGGGLDQAGGSLRLSCAASGRIFKRYAMGWYRQAPGKERELVAAITRSGTRTYYADSVKGRFTISRDNAKNTVYLQMNSLKPEDTAVYYCAAALGWYSAFGYWGQGTQVTVSS
- polyreactivity (PSR sort gate): high polyreactivity

Sequence: QVQLVESGGGLDQAGGSLRLSCAASGRIFNKYAMGWYRQAPGKERELVAAISSGASTYYADSVKGRFTISRDNAKNTVYLQMNSLKPEDTAVYYCAAGGSKGGNYWGQGTQVTVSS
- polyreactivity (PSR sort gate): high polyreactivity

Sequence: QVQLVESGGGLDQAGGSLRLSCAASGRIFQYYAMGWYRQAPGKERELVAAITSGGRTTYADSVKGRFTISRDNAKNNVYLQMNSLKPEDTAVYYCNAKTWYSYNYWGQGTQVTVSS
- polyreactivity (PSR sort gate): high polyreactivity

Sequence: QVQLVESGGGLDQAGGSLRLSCAASGRIFRPNAMGWYRQAPGKERELVAAITSGGSTNYADSVKGRFTISRDNAKNTVYLQMNSLKPEDNAVYYCAKGYKYGKNIYYYWGQGTQVTVSS
- polyreactivity (PSR sort gate): high polyreactivity

Sequence: QVQLVESGGGLDQAGGSLRLSCAASGRIFRYNAMVWYRQAPGKERELVASISGTSRTKYADSVKGRFTISRDNAKNTVYLQMNSLKPEDTAVYYCAARRYGWGRAQSSASYDHWGQGTQVTVSS
- polyreactivity (PSR sort gate): high polyreactivity

Sequence: QVQLVESGGGLDQAGGSLRLSCAASGRIFTAYAMGWYRQAHGKERELVAAISSGDSTYYADSVKGRFTISRDNAKNTVYLQMNSLKPEDTAVYYCATGVYPDFEYDSWGQGTQVTVSS
- polyreactivity (PSR sort gate): low polyreactivity

Sequence: QVQLVESGGGLDQAGGSLRLSCAASGRIFTVYAMGGYRQAPGKERELVAAISGRGGRTYYADSVKGRFTISRDIAKNTVYLQMNSLKPEDTAVYYCNADTLTLTRPDGDIHTVWMDYWGQGTQVTVSS
- polyreactivity (PSR sort gate): low polyreactivity

Sequence: QVQLVESGGGLDQAGGSLRLSCAASGRNFTRYAMGWYRQAPGKERELVAVITRSGGSTYYADSVKGRFTISRDNAKNTVYLQMNSVKPEDTAVYYCDAKYYGEMYYWGQRTQVTVSS
- polyreactivity (PSR sort gate): low polyreactivity

Sequence: QVQLVESGGGLDQAGGSLRLSCAASGRTFAYYAIGWYRQAPGKERELVATITSYVGRTYYADSVKGRFTISRDNAKKSVYLQMNSLKPDDTAVYYSNARDWGRTRGGGYPWLYRYDYWGQGTQVTVSS
- polyreactivity (PSR sort gate): low polyreactivity

Sequence: QVQLVESGGGLDQAGGSLRLSCAASGRTFFDYAMGWYRQATGKERELVAAINWSGGRTYYADSVKGRFTISRDNAKNTVYLQMISLKPEDTAVYYCAAIYGSLYPTGQTRRDYYSWGQGTKVTVSS
- polyreactivity (PSR sort gate): low polyreactivity

Sequence: QVQLVESGGGLDQAGGSLRLSCAASGRTFGTYVMGWSRQAPGKERELVAAITGSGGSTYYADSVKGRFTISRDIAKNSVYLQMNSLKPEDTAVYYCSAKYRRPRYGFWGQGTQVTVSS
- polyreactivity (PSR sort gate): high polyreactivity

Sequence: QVQLVESGGGLDQAGGSLRLSCAASGSIFAYYVMGWYRQAKGKERELVAAITSVGSTNYADSVKGRFTISRDNAKNTVYLQMNSLKPEESAVFYCAADQYQARYYYWGQGTQVTVSS
- polyreactivity (PSR sort gate): low polyreactivity

Sequence: QVQLVESGGGLDQAGGSLRLSCAASGSIFDSNALGWYRQAPGKERELVASITSSGGSTYYADSVKGRFTISRDKAKNTVYLQMNSLKPEDTAVYYCAADSYKTKHDAYDYCGQGTQVTVSS
- polyreactivity (PSR sort gate): high polyreactivity
